According to article PMC5559510:

Tests used:
[1] = target: TMR-labeled SNAP-25a (S187C) (human) (UniProt P60880); assay: FRET or BRET; membrane-free, 37°C; 5 μM co-expressed Munc18-1/syntaxin-1 (1–261), 5 μM TMR-SNAP-25a (S187C), 1 μM BDPY-synaptobrevin-2 (29–93, S61C), 30 μM Munc13-1 MUN domain, with or without 2 μM Syt1 C2AB; fitted to a one-phase exponential decay
[2] = target: TMR-labeled SNAP-25a (S187C) (human) (UniProt P60880); assay: FRET or BRET; one-membrane system, 37°C; Munc18-1/full-length syntaxin-1 on t-liposomes, TMR-SNAP-25a (S187C), BDPY-synaptobrevin-2 (29–93, S61C) in solution, 0.5 μM Munc13-1 C1-C2B-MUN, with or without 0.5 μM Syt1 C2AB, 0.2 mM EDTA; two-phase exponential decay
[3] = target: TMR labeled SNAP-25a Δ9 (residues 1–197, S187C) (human) (UniProt P60880); assay: FRET or BRET; two-membrane system, 37°C; Munc18-1/full-length syntaxin-1 on t-liposomes, BDPY-full-length synaptobrevin-2 (S61C) on v-liposomes, TMR-SNAP-25a Δ9 (S187C), 0.5 μM Munc13-1 C1-C2B-MUN, with or without 0.5 μM Syt1 C2AB, 0.2 mM EDTA; two-phase exponential decay

kfast of ternary SNARE complex formation (no Syt1) [1]	kfast of ternary SNARE complex formation (with Syt1 C2AB) [1]	τfast of ternary SNARE complex formation (no Syt1) [1]	τfast of ternary SNARE complex formation (with Syt1 C2AB) [1]	kfast of ternary SNARE complex formation (no Syt1) [2]	kfast of ternary SNARE complex formation (with Syt1 C2AB) [2]	τfast of ternary SNARE complex formation (no Syt1) [2]	τfast of ternary SNARE complex formation (with Syt1 C2AB) [2]	kfast of ternary SNARE complex formation (no Syt1) [3]	kfast of ternary SNARE complex formation (with Syt1 C2AB) [3]	τfast of ternary SNARE complex formation (no Syt1) [3]	τfast of ternary SNARE complex formation (with Syt1 C2AB) [3]	Substance
0.0013 s⁻¹	0.00354 s⁻¹	770 s	282 s	0.00135 s⁻¹	0.0152 s⁻¹	740 s	65.8 s	–	–	–	–	BDPY-labeled synaptobrevin-2 cytoplasmic domain (residues 29–93, S61C) (from UniProt P63045 29-93) (domain or fragment)
–	–	–	–	–	–	–	–	0.0123 s⁻¹	0.0249 s⁻¹	81.4 s	40.1 s	BDPY-labeled full-length synaptobrevin-2 (residues 1–116, S61C), on v-liposomes (from UniProt P63045 1-116) (natural protein)
